According to the supplement of paper PMC7877785:
± gives the uncertainty stated by the source.

Test: self-splicing fitness, log relative to wild type (ln ratio); higher = more splicing; Tetrahymena group I intron in knt gene, E. coli kanamycin selection, DiMSum; sequences stand for … in CUCUCU…GGAGGGAAAAGUUAUCAGGCAUGCACCUGGUAGCUAGUCUUUAAACCAAUAGAUUGCAUCGGUUUAAAAGGCAAGACCGUCAAAUUGCGGGAAAGGGGUCAACAGCCGUUCAGUACCAAGUCUCAGGGGAAACUUUGAGAUGGCCUUGCAAAGGGUAUGGUAAUAAGCUGACGGACAUGGUCCUAACCACGCAGCCAAGUCCUAAGUCAACAGAUCUUCUGUUGAUAUGGAUGCAGUUCACAGACUAAAUGUCGGUCGGGGAAGAUGUAUUCUUCUCAUAAGAUAUAGUCGGACCUCUCCUUAAUGGGAGCUAGCGGAUGAAGUGAUGCAACACUGGAGCCGCUGGGAACUAAUUUGUAUGCGAAAGUAUAUUGAUUAGUUUUGGAGUACUCGUGGUCG
In short: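 The eight P1ex-region nucleotides of an intron in the knt kanamycin-resistance gene on pET-22b(+) were all randomised and the library put into E. coli BL21(DE3). Six replicate transformations were grown overnight at 37°C or 30°C on LB agar with or without 25 μg/mL kanamycin, together with 100 μg/mL carbenicillin, 50 μM IPTG and 0.2% rhamnose. Colonies were pooled and amplicon-sequenced on an Illumina HiSeq 2500. Fitness from DiMSum is the error-weighted combination of wild-type-normalised replicate fold changes, kanamycin over none.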

Row | Sequence | self-splicing fitness (ln) (30 °C) | self-splicing fitness (ln) (37 °C)
1 | AAAAAGCAAUAUUACGUUGA | -2.63 ± 0.11 | -1.48 ± 0.12
2 | UACCAGCAAUAUUACGCACA | -0.477 ± 0.088 | 0.0379 ± 0.092
3 | AUCUAGCAAUAUUACGGUUA | -0.746 ± 0.15 | -0.055 ± 0.12
4 | GCCGAGCAAUAUUACGACUA | -0.948 ± 0.16 | -2.21 ± 0.27
5 | UCAAAGCAAUAUUACGAUCC | -3.21 ± 0.3 | -2.34 ± 0.4
6 | UUCGAGCAAUAUUACGUAGU | -2.91 ± 0.29 | -0.98 ± 0.25
7 | CGUGAGCAAUAUUACGGUGU | -3.79 ± 0.43 | -1.98 ± 0.22
8 | UUCUAGCAAUAUUACGGCGG | -2.93 ± 0.16 | -1.28 ± 0.13
9 | AGGGAGCAAUAUUACGAUCU | -2.71 ± 0.23 | -1.77 ± 0.17
10 | AGUUAGCAAUAUUACGCGAC | -2.88 ± 0.45 | -0.848 ± 0.26
11 | ACGUAGCAAUAUUACGCAAG | -3.16 ± 0.24 | -3.03 ± 0.22
12 | AACGAGCAAUAUUACGCUUG | -2.67 ± 0.17 | -2.99 ± 0.29
13 | GGCCAGCAAUAUUACGCGCU | – | -1.76 ± 0.39
14 | AAGAAGCAAUAUUACGUCCU | -0.0351 ± 0.12 | 0.363 ± 0.16
15 | AAACAGCAAUAUUACGAGGU | -4.6 ± 0.26 | -2.53 ± 0.15
16 | AAUAAGCAAUAUUACGUACA | -0.815 ± 0.1 | -0.842 ± 0.11
17 | UCGGAGCAAUAUUACGUCAG | – | -1.11 ± 0.34
18 | CCAAAGCAAUAUUACGCGUG | -1.93 ± 0.067 | -1.26 ± 0.066
19 | CCGGAGCAAUAUUACGGGCA | -3.1 ± 0.48 | -2.4 ± 0.41
20 | ACGUAGCAAUAUUACGGCGG | -1.65 ± 0.1 | -0.812 ± 0.11
21 | CACGAGCAAUAUUACGAUGC | -3.47 ± 0.37 | -2.74 ± 0.29
22 | GCCUAGCAAUAUUACGAACA | -2.17 ± 0.22 | -1.03 ± 0.19
23 | UCAAAGCAAUAUUACGUAAG | -1.77 ± 0.08 | -0.788 ± 0.1
24 | GAGGAGCAAUAUUACGUACU | -2.16 ± 0.16 | -0.205 ± 0.19
25 | UUGAAGCAAUAUUACGACUA | 0.321 ± 0.098 | 0.141 ± 0.11

Row | Sequence | self-splicing fitness (ln) (30 °C) | self-splicing fitness (ln) (37 °C)
26 | GCUAAGCAAUAUUACGCAUC | -0.687 ± 0.13 | -1.06 ± 0.21
27 | ACAUAGCAAUAUUACGGCCC | -1.29 ± 0.14 | -0.169 ± 0.23
28 | GCACAGCAAUAUUACGGGUA | -1.36 ± 0.055 | -0.723 ± 0.061
29 | GAAGAGCAAUAUUACGGAUU | -2.29 ± 0.15 | -1.79 ± 0.19
30 | ACGAAGCAAUAUUACGGUUA | -1.58 ± 0.095 | -0.445 ± 0.079
31 | ACAGAGCAAUAUUACGGCUC | -3.09 ± 0.16 | -2.37 ± 0.22
32 | AUAAAGCAAUAUUACGCCGA | -1.06 ± 0.077 | 0.123 ± 0.11
33 | UAGUAGCAAUAUUACGUUUC | -1.16 ± 0.38 | -1.5 ± 0.41
34 | CCUCAGCAAUAUUACGGGAA | -2.4 ± 0.19 | -3.35 ± 0.3
35 | AUAAAGCAAUAUUACGACGC | 0.18 ± 0.093 | 0.349 ± 0.14
36 | UAAUAGCAAUAUUACGAUAA | -3.33 ± 0.2 | -1.78 ± 0.16
37 | UACUAGCAAUAUUACGUAGA | -1.84 ± 0.11 | -1.95 ± 0.16
38 | UGCAAGCAAUAUUACGCGCG | -1.84 ± 0.13 | -0.733 ± 0.17
39 | CGCGAGCAAUAUUACGUGCG | – | -3.3 ± 0.47
40 | CGGCAGCAAUAUUACGCAAG | -1.93 ± 0.13 | -1.01 ± 0.16
41 | GAAAAGCAAUAUUACGUUAU | -1.67 ± 0.07 | -0.868 ± 0.088
42 | UCCCAGCAAUAUUACGCGGU | -3.01 ± 0.13 | -0.898 ± 0.087
43 | UGUAAGCAAUAUUACGCUAU | -3.7 ± 0.32 | -2.24 ± 0.29
44 | AUUAAGCAAUAUUACGUCGC | -3.33 ± 0.22 | -2.8 ± 0.25
45 | AGACAGCAAUAUUACGACUA | -0.888 ± 0.092 | -0.383 ± 0.088
46 | CAAUAGCAAUAUUACGCACA | -2.3 ± 0.12 | -1.4 ± 0.12
47 | UUUGAGCAAUAUUACGCUCG | -3.8 ± 0.4 | -2.01 ± 0.34
48 | CUAAAGCAAUAUUACGUAAA | -2.81 ± 0.14 | -3.36 ± 0.26
49 | ACUCAGCAAUAUUACGAGAC | -2.7 ± 0.24 | -1.87 ± 0.17
